Source: patent US9556236 (UNIVERSITY OF SOUTH FLORIDA, dated 2017)
Positions of bridges follow the written chain, without caps; N, C: chain ends. No end group written: not given here.

Target: RSV fusion (F) protein (respiratory syncytial virus (strains …, UniProt P03420 26-574))
Assay: cell-based or functional assay

Chain of RSV fusion (F) protein (respiratory syncytial virus (P03420 26-574): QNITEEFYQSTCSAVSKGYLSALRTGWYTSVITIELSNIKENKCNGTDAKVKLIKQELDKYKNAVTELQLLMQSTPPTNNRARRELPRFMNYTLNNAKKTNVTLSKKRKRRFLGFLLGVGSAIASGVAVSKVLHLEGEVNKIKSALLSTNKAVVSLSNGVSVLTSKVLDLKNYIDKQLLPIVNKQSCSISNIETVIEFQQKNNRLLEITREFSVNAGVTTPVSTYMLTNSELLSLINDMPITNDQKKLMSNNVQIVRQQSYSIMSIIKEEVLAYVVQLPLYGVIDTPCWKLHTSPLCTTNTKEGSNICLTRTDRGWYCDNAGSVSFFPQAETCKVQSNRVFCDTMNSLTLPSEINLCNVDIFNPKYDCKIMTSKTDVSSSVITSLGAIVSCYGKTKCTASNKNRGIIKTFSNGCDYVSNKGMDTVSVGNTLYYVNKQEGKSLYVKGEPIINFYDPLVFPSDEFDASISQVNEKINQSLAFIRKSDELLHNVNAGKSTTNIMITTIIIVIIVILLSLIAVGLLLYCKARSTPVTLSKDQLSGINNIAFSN

FDACISQVNECINQSLAFIRKSDELLHNVNAGKST (disulfide 4-11) [HR2-S]
A2 RSV viral titers, plaque assay (time point not clearly stated): 0.1 fold decrease
A2 RSV viral titers, plaque assay on HEp2 cells, 24 h to 96 h pi: ~0.2 fold reduction
A2 RSV viral titers, plaque assay, 96 h pi: 0.1 fold decrease
RA2 RSV viral titers, plaque assay (time point not clearly stated): 100 fold decrease
RA2 RSV viral titers, plaque assay, 96 h pi: 20 fold smaller

DACISQVNECINQSLAFICKSDELLCNT (not fully specified (bridges); also: predicted disulfides C3-C10 and C19-C26) [HR2-D]
A2 RSV viral titers, plaque assay (time point not clearly stated): 100 fold reduction
A2 RSV viral titers, plaque assay on HEp2 cells, 24 h to 96 h pi: ≥ 100 fold reduction
A2 RSV viral titers, plaque assay, 96 h pi: 50000 fold reduction
RA2 RSV viral titers, plaque assay (time point not clearly stated): 100 fold decrease
RA2 RSV viral titers, plaque assay on HEp2 cells, 24 h to 96 h pi: ≥ 100 fold reduction
RA2 RSV viral titers, plaque assay, 96 h pi: 1000 fold less
